The subject of assay [1] is basophils. The experiment in a line: Basophil Activation Test. The assay is classed as cell-based, human. The following applies: non-latex allergic control subject N2. How it is done: FIG. 9 is a graphical representation of the basophil Activation Test on a latex allergic donor. Whole blood from a latex allergic, Hev b 6 sensitized subject was incubated with latex allergens. The cells were stained with FITC labelled anti-human IgE polyclonal antibodies and a PE labelled monoclonal anti-human CD63 antibody. Cells were analysed by flow cytometry defining basophils on the basis of scatter (A) and high IgE staining (B). The percentage of activated basophils expressing CD63 was determined (C).
The Basophil Activation Test was performed on whole blood from (A) non-latex allergic subject N2; (B) latex-allergic subject A7; (C) latex-allergic subject A8 and (D) latex-allergic subject A10. Antigens: latex glove extract (GE), hevein peptide (hevein), rHev b 6, mutant rHev b 6 (MU rHev b 6), sulphonated rHev b 6, (sul. rHev b 6), rHev b 5, KLH and house dust mite extract (HDM). All allergens were used at 10 μg/ml except for rHev b 6 and mutant rHev b 6 which were used at 0.1, 1 and 10 μg/ml. The cut-off for positive was set at the level of activated basophils after incubation in stimulation buffer alone (no antigen, horizontal line). A plus symbol (+) indicates antigen to which a subject has either a positive clinical history of allergy and/or a positive reading on an allergen-specific IgE ELISA.
A basophil activation assay based on flow cytometry was used to quantify the activation of basophils after incubation with various allergens. This assay was modified from Paris-Kohler A, Demoly P, Persi L, Lebel B, Bousquet J, Arnoux B. In vitro diagnosis of cypress pollen allergy by using cytofluorimetric analysis of basophils (Basotest). J Allergy Clin Immunol 2000; 105:339-45. Whole blood was collected in 6 ml heparinised vacutainers (Greiner). 100 μl aliquots were preincubated with stimulation buffer (20 mM Hepes, 133 mM NaCl, 5 mM KCl, 7 mM CaCl2, 3.5 mM MgCl2, 1 mg/ml BSA, 20 μl/ml heparin, pH 7.4) containing 2 ng/ml IL-3, for 10 min at 37° C., to increase the sensitivity of the assay. Samples were incubated for 20 min at 37° C. with 100 μl of stimulation buffer alone or stimulation buffer containing either rabbit anti-human IgE (Dako) at 1 in 500 dilution, 2 μM N-fMLP (Sigma, Mo, USA), crude allergen extracts, recombinant latex allergens or Keyhole Limpet Haemocyanin (KLH) (Sigma, Mo, USA). Basophil activation was stopped by incubating at 4° C. for 5 min. Normal goat serum (10 μl) was added to each tube to block non-specific binding of the detection antibody (goat anti-human IgE-FITC) and incubated for 10 min at 4° C. Samples were incubated with goat anti-human IgE-FITC (Caltag, Birmingham, Calif.) at a dilution of 1 in 2.5, and mouse anti-human CD63-R-Phycoerythrin (PE; Caltag, Birmingham, Calif.) at a dilution of 1 in 20, in a 20 μl volume of wash buffer (20 mM HEPES, 133 mM NaCl, 5 mM KCl, 0.27 mM EDTA, pH7.3). RBC were lysed by the addition of 2 ml FACS lysing solution (39 mM NH4Cl, 2.5 mM KHCO3, 0.2 mM EDTA) and incubation for 10 min at room temperature. Cells were centrifuged (250 g, 5 min at 4° C.), resuspended in 3 ml wash buffer, and centrifuged as before. Pellets were resuspended in 200 μl wash buffer, and analysed by flow cytometry (FACScalibur, Becton Dickinson) within 2 h of the experiment. 7AAD (Sigma, Mo, USA) was added to the samples 5 min prior to FACS analysis.

For assay [2] the following is noted: Chen Z et al., 1997; cited from earlier work.
Assay [3] concerns the target serum IgE of a latex-allergic, Hev b 5 positive subject. The experiment in a line: non-specific inhibition ELISA: serum preincubated with inhibitor, IgE binding to rHev b 5 read (data not shown).
For assay [4], the target named is serum IgE of latex-allergic subject A6. The experiment in a line: inhibition ELISA of IgE binding to plate-coated rHev b 6, soluble inhibitor 0.0016-125 µg/ml (FIG. 8C).
Assay [5] concerns the target IgE from the sera of latex allergic, Hev b 6 sensitised subjects. The experiment in a line: inhibition ELISA of IgE binding to plate-coated rHev b 6, estimated.
For assay [6], the target named is serum IgE of latex-allergic subject A8. The experiment in a line: inhibition ELISA of IgE binding to plate-coated rHev b 6, inhibitor at 125 µg/ml (FIG. 8D). On the technique in general: In an ELISA, binding on a coated surface is turned into a signal by an enzyme label.
Assay [7] addresses serum IgE of latex-allergic subject A7. The experiment in a line: inhibition ELISA of IgE binding to plate-coated rHev b 6, soluble inhibitor 0.0016-125 µg/ml (FIG. 8B).
For assay [8], the target named is IgE from the sera of latex allergic, Hev b 6 sensitised subjects. The experiment in a line: inhibition ELISA of IgE binding to plate-coated rHev b 6, ratio of the 30% inhibition concentrations.

Changes are numbered by the printed parent chain.

For the molecule “hevein peptide: 43-mer hevein peptide synthesised according to the prohevein amino acid sequence by Mimotopes (EQCGRQAGGKLCPNNLCCSQWGWCGSTDEYCSPDHNCQSNCKD)”, the basophil activation result in assay [1] is on record as “negligible”.

For “Hevein: 4.7 kDa hydrophilic protein which forms the N-terminus of pro-hevein (EQCGRQAGGKLCPNNLCCSQWGWCGSTDEYCSPDHNCQSNCKD)”, in assay [2], the “patients with latex allergy reacting on skin testing” value is given as 81%.

B1: Recombinant Hev b 6 (rHev b 6) (protein, not shown: small tags and cut ends)
chain: EQCGRQAGGKLCPNNLCCSQWGWCGSTDEYCSPDHNCQSNCKDSGEGVGGGSASNVLATYHLYNSQDHGWDLNAASAYCSTWDANKPYSWRSKYGWTAFCGPVGAHGQSSCGKCLSVTNTGTGAKTTVRIVDQCSNGGLDLDVNVFRQLDTDGKGYERGHITVNYQFVDCGDSFNPLFSVMKSSVIN
In assay [3], B1 returned a percent inhibition (non-specific control) of less than 20%. In addition, the percent inhibition in assay [4], in assay [6] and in assay [7] was 100% each time. The inhibitor concentration giving 30% inhibition of IgE binding in assay [5] was 0.01 µg/mL.

B2: mutant rHev b 6 (cysteine to alanine substitution at amino acid 3) (protein, not shown: small tags and cut ends)
chain: B1 chain with C3A
B2 gave a percent inhibition (non-specific control) in assay [3] of less than 20%. In addition, in assay [8], the fold more inhibitor required than rHev b 6 is 12500 fold. For the same molecule, the inhibitor concentration giving 30% inhibition of IgE binding in assay [5] is 125 µg/mL. Moreover, in assay [6], the maximum percent inhibition came out at 32%.

B3: rHev b 5: recombinant latex allergen Hev b 5 (protein)
chain: ASVEVESAATALPKNETPEVTKAEETKTEEPAAPPASEQETADATPEKEEPTAAPAEPEAPAPETEKAEEVEKIEKTEEPAPEADQTTPEEKPAEPEPVAEEEPKHETKETETEAPAAPAEGEKPAEEEKPITEAAETATTEVPVEKTEE
On to B3, for which the basophil activation result in assay [1] was “negligible”.

Source of the values: US20060233785A1, “Immunointeractive molecules and uses thereof” (priority 2001, published 2006).
